We go through one protein from patent US20040018561A1, “Peptide compounds and their use as protease substrates” (priority 2002, published 2004).

Conditions in all cases: other: substrate cleavage by MMP-9
Substrate in series [1]: COc1ccc2c(CC(=O)N[C@H](CCCNC(=N)N)C(=O)N3CCC[C@H]3C(=O)N[C@@H](CC(C)C)C(=O)NCC(=O)N[C@@H](CCCCOc3ccccc3)C(=O)N[C@@H](CNc3ccc([N+](=O)[O-])cc3[N+](=O)[O-])C(=O)N[C@@H](C)C(=O)N[C@H](CCCNC(=N)N)C(=O)N[C@H](CCC(=O)O)C(=O)N[C@H](CCCNC(=N)N)C(N)=O)cc(=O)oc2c1
Nature of the series: Km and kcat/Km of substrates with MMP-9. The format is biochemical.

Substrate in series [2]: COc1ccc2c(CC(=O)N[C@H](CCCNC(=N)N)C(=O)N3CCC[C@H]3C(=O)N[C@@H](CC(C)C)C(=O)NCC(=O)N[C@@H](CCCCOCc3ccccc3)C(=O)N[C@@H](CNc3ccc([N+](=O)[O-])cc3[N+](=O)[O-])C(=O)N[C@@H](C)C(=O)N[C@H](CCCNC(=N)N)C(=O)N[C@H](CCC(=O)O)C(=O)N[C@H](CCCNC(=N)N)C(N)=O)cc(=O)oc2c1
The experiment in a line: Km and kcat/Km of substrates with MMP-9. It counts as biochemical.

Substrate in series [3]: COc1ccc2c(CC(=O)N[C@@H](CCCNC(=N)N)C(=O)N3CCCC3C(=O)N[C@@H](CC(C)C)C(=O)NCC(=O)N[C@@H](CC(C)C)C(=O)N[C@H](CNc3ccc([N+](=O)[O-])cc3[N+](=O)[O-])C(=O)N[C@@H](C)C(=O)N[C@H](CCCNC(=N)N)C(=O)N[C@@H](CCC(=O)O)C(=O)N[C@H](CCCNC(=N)N)C(N)=O)cc(=O)oc2c1
The experiment in a line: Km and kcat/Km of substrates with MMP-9. The format is biochemical.

Substrate in series [4]: COc1ccc2c(CC(=O)N[C@@H](CCCNC(=N)N)C(=O)N3CCC[C@H]3C(=O)N[C@@H](CC(C)C)C(=O)NCC(=O)N[C@@H](CCCCOCc3ccccc3)C(=O)N[C@@H](CNc3ccc([N+](=O)[O-])cc3[N+](=O)[O-])C(=O)N[C@@H](C)C(=O)N[C@@H](CCCNC(=N)N)C(=O)N[C@@H](CCC(=O)O)C(=O)N[C@@H](CCCNC(=N)N)C(N)=O)cc(=O)oc2c1
The experiment in a line: Km and kcat/Km of substrates with MMP-9. The format is biochemical.

Substrate in series [5]: COc1ccc2c(CC(=O)N[C@@H](CCCNC(=N)N)C(=O)N3CCC[C@@H]3C(=O)N[C@@H](CC(C)C)C(=O)NCC(=O)N[C@@H](CC(C)C)C(=O)N[C@H](CNc3ccc([N+](=O)[O-])cc3[N+](=O)[O-])C(=O)N[C@@H](C)C(=O)N[C@H](CCCNC(=N)N)C(=O)N[C@@H](CCC(=O)O)C(=O)N[C@H](CCCNC(=N)N)C(N)=O)cc(=O)oc2c1
The experiment in a line: purified protein, by the assay type.

Substrate in series [6]: COc1ccc2c(CC(=O)N[C@@H](CCCNC(=N)N)C(=O)N3CCCC3C(=O)N[C@@H](CC(C)C)C(=O)NCC(=O)N[C@@H](CC(C)C)C(=O)N[C@H](CNc3ccc([N+](=O)[O-])cc3[N+](=O)[O-])C(=O)N[C@@H](C)C(=O)N[C@H](CCCNC(=N)N)C(=O)N[C@@H](CCC(=O)O)C(=O)N[C@H](CCCNC(=N)N)C(N)=O)cc(=O)oc2c1
The experiment in a line: purified protein, by the assay type.

B1: MMP-9 (Homo sapiens) (protein)
chain: MRTPRCGVPDLGRFQTFEGDLKWHHHNITYWIQNYSEDLPRAVIDDAFARAFALWSAVTPLTFTRVYSRDADIVIQFGVAEHGDGYPFDGKDGLLAHAFPPGPGIQGDAHFDDDELWSLGKGVVVPTRFGNADGAACHFPFIFEGRSYSACTTDGRSDGLPWCSTTANYDTDDRFGFCPSERLYTQDGNADGKPCQFPFIFQGQSYSACTTDGRSDGYRWCATTANYDRDKLFGFCPTRADSTVMGGNSAGELCVFPFTFLGKEYSTCTSEGRGDGRLWCATTSNFDSDKKWGFCPDQGYSLFLVAAHEFGHALGLDHSSVPEALMYPMYRFTEGPPLHKDDVNGIRHLYGPRPEPEPRPPTTTTPQPTAPPTVCPTGPPTVHPSERPTAGPTGPPSAGPTGPPTAGPSTATTVPLSPVDDACNVNIFDAIAEIGNQLYLFKDGKYWRFSEGRGSRPQGPFLIADKWPALPRKLDSVFEERLSKKLFFFSGRQVWVYTGASVLGPRRLDKLGLGADVAQVTGALRSGRGKMLLFSGRRLWRFDVKAQMVDPRSASEVDRMFPGVPLDTHDVFQYREKAYFCQDRFYWRVSSRSELNQVDQVGYVTYDILQCPED
The term Km denotes the concentration of substrate that gives half-maximal velocity. With B1, the Km stood at 1.4 µM in series [1]; 3.3 µM in series [2]; 6.2 µM in series [3]; 2.3 µM in series [4]; 6.4 µM in series [5]; 8.2 µM in series [6]. Besides, the kcat/Km in series [1] is recorded as 191 M^−1s^−1×10^4; in series [2], 31.9 M^−1s^−1×10^4; in series [3] it was 129 M^−1s^−1×10^4; in series [4], 147 M^−1s^−1×10^4; in series [5], 41.8 M^−1s^−1×10^4; in series [6], 133 M^−1s^−1×10^4.
